Measured values reported in doi:10.64898/2025.12.19.695307 (bioRxiv, 2025).
Numbering of substitutions follows the chain as printed.

B1: C092 (antibody, V domains shown)
VH: QVQLVQSGAEVKKPGSSVKVSCKASGGSFTNHFISWVRQAPGQGLEWMGRIIPILGTANYAQNFQGRVMMTADKSTSTAYMELSSLRSEDTAVYYCARDSGYSGYGSTYYMDVWGKGTTVTVSS
VL: QSVLTQPPSVSGAPGQRVTISCTGSNSNIGAGYDVHWYQQLPGAAPKLLIYGNNNRPSGVPDRFSGSKSDTSASLAITGLQVEDEADYYCQSYDSSLSDSVFGSGTKVTVL
B2: C092-germline HCDR1 (antibody, V domains shown)
VH: B1 VH with S28T, T30S, N31S, H32Y, F33A
VL: B1 VL
B3: BD56-597 (antibody, V domains shown)
VH: QVQLVQSGAEVKKPGSSVKVSCKASGGTFSTYPISWVRQAPGQGVEWMGAIIPILGTTDYAQIFQGRVTITADKSTSTAYMELSSLRPEDTAVYYCARERGYSGYGAAYYFDSWGQGTLVTVSS
VL: B1 VL with N26D, A44T, G52V, N54I, D70A, V82A, D99G, S100V, S104G, V108L
B4: ZL525 (antibody, V domains shown)
V domain 1: QVQLVQSGAEVKKPGSSMKVSCQASGGTFSSHPISWIRQAPGQGLEWMGRIIPIAGMTDYGQKFQGRITITADTSTSTSYVELRGLRSQDTAFYYCAKDVGYSDYGSAYYFHTWGQGTLITVSS
V domain 2: QSVLTQPPSVSGAPGQRVTISCTGSNSNIGAGYDVHWYQQLPGTAPKLLIYRNNKRPSGVPDRFSGSKSDTSASLAITGLQAEDEAHYYCQSFDSSLGGSLFGGGTKLAVL
B5: C807 (antibody, V domains shown)
VH: QVQLVQSGAEAKKPGSSVKVSCKASGGTFKSYIINWVRQAPGQGLEWMGEIIPIFGTANYAQKFQGRVTSTADESTSTAYMELSSLKSEDTAVYYCARGRGYSGYGASYYFDYWGQGTLVTVSS
VL: B1 VL with A44T, G52A, N54S, D70G, V82A, S96G, D99G, S104G, V108L
B6: R1-32-AAM (R1-32-artificial-affinity-matured) (antibody, V domains shown)
VH: EVQLVESGAEVKKPGSSVKVSCKASGGTFSSYFISWVRQAPGQGLEWMGGIIPILGIADYAEKFQGRVTITADKSTSTAYMELSSLRSEDTAVYYCARENGYSGYGAAYNFDLWGRGTLVTVSS
VL: B1 VL with N26D, A44T, N54S, V82A, S104G, V108L
B7: R1-32 (antibody, V domains shown)
VH: B6 VH with F33A, D59N, E62Q, Y109A
VL: B1 VL with N26S, A44T, N54S, D70G, V82A, D99G, S104G, V108L
B8: BD56-104 (antibody, V domains shown)
VH: QVQLVQSGAEVKTPGSSVKVSCKASGGTFGSHSITWVRQAPGQGLEWMGRVIPILGIPDFAESFQGRVAITADRSTSTAHMELSRLRSEDTAVYYCARDVGYSGSGSSNYFDSWGQGTLVTVSS
VL: QSVLTQPPSVSGAPGQRVTISCTGSNSNIGAGYDVHWYRQLPGTAPKLLIYVNNNRPSGVPDRFSGSRSGASASLAITGLQAEDEAEYYCQSYDSSLSGSIFGGGTKLTVL
B9: BD56-104+D59NH+E62QH (antibody, V domains shown)
VH: B8 VH with D59N, E62Q
VL: B8 VL

What was measured:
[1] = molecular target: SARS-CoV-2 Omicron BF.7 RBD (SARS-CoV-2 Omicron BF.7, L452R); assay: BLI
[2] = molecular target: SARS-CoV-2 Omicron EG.5.1 RBD (SARS-CoV-2 Omicron EG.5.1, F490S); assay: BLI
[3] = molecular target: SARS-CoV-2 Omicron XBB.1.5 RBD (SARS-CoV-2 Omicron XBB.1.5, F490S); assay: BLI
[4] = molecular target: SARS-CoV-2 Omicron BA.1.1 RBD (SARS-CoV-2 Omicron BA.1.1, strain); assay: BLI
[5] = molecular target: SARS-CoV-2 Omicron BA.2.13 RBD (SARS-CoV-2 Omicron BA.2.13, L452M); assay: BLI
[6] = molecular target: SARS-CoV-2 Omicron BA.2.75 RBD (SARS-CoV-2 Omicron BA.2.75, strain); assay: BLI
[7] = molecular target: SARS-CoV-2 Omicron BA.2.12.1 RBD (SARS-CoV-2 Omicron BA.2.12.1, L452Q); assay: BLI
[8] = molecular target: SARS-CoV-2 Omicron EG.5 RBD (SARS-CoV-2 Omicron EG.5, R346T | F490S); assay: BLI
[9] = molecular target: SARS-CoV-2 Omicron BA.4/5 RBD (SARS-CoV-2 Omicron BA.4/5, L452R); assay: BLI
[10] = molecular target: SARS-CoV-2 Omicron BA.1 RBD (SARS-CoV-2 Omicron BA.1, strain); assay: BLI
[11] = molecular target: SARS-CoV-2 Omicron BQ.1.1 RBD (SARS-CoV-2 Omicron BQ.1.1, R346T | L452R); assay: BLI
[12] = molecular target: SARS-CoV-2 Omicron BA.3 RBD (SARS-CoV-2 Omicron BA.3, strain); assay: BLI
[13] = molecular target: SARS-CoV-2 WT S-trimer (SARS-CoV-2 ancestral (WT), UniProt P0DTC2, deletion of amino acids PRRA (681-684)); assay: BLI
[14] = molecular target: SARS-CoV-2 Gamma (P.1) RBD (SARS-CoV-2 Gamma (P.1), strain); assay: BLI
[15] = molecular target: SARS-CoV-2 Kappa (B.1.617.1) RBD (SARS-CoV-2 Kappa (B.1.617.1), L452R); assay: BLI
[16] = molecular target: SARS-CoV-2 Alpha (B.1.1.7) RBD (SARS-CoV-2 Alpha (B.1.1.7), strain); assay: BLI
[17] = molecular target: SARS-CoV-2 Beta (B.1.351) RBD (SARS-CoV-2 Beta (B.1.351), strain); assay: BLI
[18] = molecular target: SARS-CoV-2 Omicron BA.2 RBD (SARS-CoV-2 Omicron BA.2, strain); assay: BLI
[19] = molecular target: SARS-CoV-2 Delta (B.1.617.2) RBD (SARS-CoV-2 Delta (B.1.617.2), L452R); assay: BLI
[20] = molecular target: SARS-CoV-2 Omicron XBB RBD (SARS-CoV-2 Omicron XBB, F490S); assay: BLI
[21] = molecular target: T1, SARS-CoV-2 KP.3 RBD (SARS-CoV-2 Omicron KP.3, strain, N354 glycosylation); assay: cell-based or functional assay
[22] = molecular target: SARS-CoV-2 JN.1 RBD (SARS-CoV-2 Omicron JN.1, strain, N354 glycosylation); assay: BLI
[23] = molecular target: SARS-CoV-2 BA.2.86 RBD (SARS-CoV-2 Omicron BA.2.86, strain, N354 glycosylation); assay: BLI
[24] = molecular target: SARS-CoV-2 JD.1.1 RBD (SARS-CoV-2 Omicron JD.1.1, strain); assay: BLI
[25] = molecular target: T1, SARS-CoV-2 KP.3 RBD; assay: BLI
[26] = molecular target: SARS-CoV-2 HK.3 RBD (SARS-CoV-2 Omicron HK.3, strain); assay: BLI

Binder | Kd [1] [nM] | Kd [2] [nM] | Kd [3] [nM] | Kd [4] [nM] | Kd [5] [nM] | Kd [6] [nM] | Kd [7] [nM] | Kd [8] [nM] | Kd [9] [nM] | Kd [10] [nM] | Kd [11] [nM] | Kd [12] [nM] | binding result [13] | Kd [14] [nM] | Kd [15] [nM] | Kd [16] [nM] | Kd [17] [nM] | Kd [18] [nM] | Kd [19] [nM] | Kd [20] [nM] | also measured
B1 | < 2.1 | < 4.5 | < 4.5 | < 0.3 | < 2.1 | < 0.3 | < 2.1 | < 4.5 | < 2.1 | < 0.3 | < 2.1 | < 0.3 | binds | < 0.3 | < 2.1 | < 0.3 | < 0.3 | < 0.3 | < 2.1 | < 4.5 | –
B2 | – | – | – | – | – | – | – | – | – | – | – | – | – | – | – | – | – | – | – | – | fold reduction in binding relative to C092 [9]: ~10 fold; fold reduction in binding relative to C092 [15]: ~10 fold; fold reduction in binding relative to C092 [19]: ~10 fold
B3 | < 2.1 | < 4.5 | < 4.5 | < 0.3 | < 2.1 | < 0.3 | < 2.1 | < 4.5 | < 2.1 | < 0.3 | < 2.1 | < 0.3 | binds | < 0.3 | < 2.1 | < 0.3 | < 0.3 | < 0.3 | < 2.1 | < 4.5 | –
B4 | – | < 0.71 | < 0.71 | – | – | – | – | – | < 0.71 | – | < 0.71 | – | – | – | < 0.71 | – | – | – | < 0.71 | – | IC50 of neutralisation of authentic KP.3 virus (focus reduction, Vero E6) [21]: 0.107 µg/mL; Kd [22]: < 1.11 nM; Kd [23]: < 1.11 nM; Kd [24]: < 1.11 nM; Kd [25]: < 1.11 nM; Kd [26]: < 1.11 nM
B5 | < 2.1 | < 4.5 | < 4.5 | < 0.3 | < 2.1 | < 0.3 | < 2.1 | < 4.5 | < 2.1 | < 0.3 | < 2.1 | < 0.3 | binds | < 0.3 | < 2.1 | < 0.3 | < 0.3 | < 0.3 | < 2.1 | < 4.5 | –
B6 | – | – | – | – | – | – | – | – | – | – | – | – | – | – | – | – | – | – | – | – | fold enhancement of affinity relative to R1-32 [1]: ~100 fold; fold enhancement of affinity relative to R1-32 [9]: ~100 fold; fold enhancement of affinity relative to R1-32 [11]: ~100 fold; fold enhancement of affinity relative to R1-32 [15]: ~100 fold; fold enhancement of affinity relative to R1-32 [19]: ~100 fold
B7 | > 55 | – | – | – | > 55 | – | > 55 | – | > 55 | – | > 55 | – | – | – | > 55 | – | – | – | > 55 | – | –
B8 | < 2.1 | < 4.5 | < 4.5 | < 0.3 | < 2.1 | < 0.3 | < 2.1 | < 4.5 | < 2.1 | < 0.3 | < 2.1 | < 0.3 | binds | < 0.3 | < 2.1 | < 0.3 | < 0.3 | < 0.3 | < 2.1 | < 4.5 | –
B9 | – | – | – | – | – | – | – | – | – | – | – | – | – | – | – | – | – | – | – | – | fold reduction in binding relative to BD56-104 [9]: ~100 fold
